{
  "source": "patent US20240279280A1",
  "about": "(CAMBRIDGE ENTERPRISE, published 2024)",
  "binders": {"B1": {"name": "MM193 (peptide)", "peptide": "CRPR[Nle]CKHCR[Aib]R[Nle][Phe(3,4,5-F3)]", "modifications": "cysteine pairing not given here", "notes": "also called CRPR-Nle-CKHCR-Aib-R-Nle-(3,4,5-trifluoro-)F"}, "B2": {"name": "MM262 (peptide)", "peptide": "QRPR[Nle]CKHCR[Aib]R[Nle][Phe(3,4,5-F3)]", "modifications": "cysteine pairing not given here", "notes": "also called QRPR-Nle-CKHCR-Aib-R-Nle-(3,4,5-trifluoro-)F"}, "B3": {"name": "MM54 (peptide)", "peptide": "CRPRLCKHCRPRLC", "modifications": "disulfide 1-6, 9-14", "notes": "Previously published macrocyclic comparator; also called cyclo(1-6)CRPRLC-KH-cyclo(9-14)CRPRLC"}, "B4": {"name": "MM300 (peptide)", "peptide": "Myristoyl-CRPR[Nle]CKHCR[Aib]R[Nle][Phe(3,4,5-F3)]", "modifications": "cysteine pairing not given here", "notes": "also called Myristoyl-CRPR-Nle-CKHCR-Aib-R-Nle-(3,4,5-trifluoro-)F"}, "B5": {"name": "MM302 (peptide)", "peptide": "CRPR[Nle]CHKCR[Aib]R[Nle][Phe(3,4,5-F3)]", "modifications": "cysteine pairing not given here", "notes": "also called CRPR-Nle-CHKCR-Aib-R-Nle-(3,4,5-trifluoro-)F"}},
  "note": "Where “and” joins values, the source holds several entries; their conditions need not be identical. Equal entries are not always repeated. Positions of bridges follow the written chain, without caps; N, C: chain ends. Non-standard residues stand in square brackets, D forms with d. No end group written: not given here. *: point of attachment. Phe(3,4,5-F3) = N[C@@H](Cc1cc(F)c(F)c(F)c1)C(=O)O; Myristoyl = CCCCCCCCCCCCCC(=O)*; pGlu = O=C1CC[C@@H](C(=O)O)N1; Nle = CCCC[C@H](N)C(=O)O; Abu = CC[C@H](N)C(=O)O; Aib = CC(C)(N)C(=O)O",
  "data": [
    {"molecular_target": "T1, human apelin receptor (human, UniProt P35414 1-380)", "T1 construct": "whole, on cells; also called AGTRL1; APJ", "T1 sequence (looked up)": "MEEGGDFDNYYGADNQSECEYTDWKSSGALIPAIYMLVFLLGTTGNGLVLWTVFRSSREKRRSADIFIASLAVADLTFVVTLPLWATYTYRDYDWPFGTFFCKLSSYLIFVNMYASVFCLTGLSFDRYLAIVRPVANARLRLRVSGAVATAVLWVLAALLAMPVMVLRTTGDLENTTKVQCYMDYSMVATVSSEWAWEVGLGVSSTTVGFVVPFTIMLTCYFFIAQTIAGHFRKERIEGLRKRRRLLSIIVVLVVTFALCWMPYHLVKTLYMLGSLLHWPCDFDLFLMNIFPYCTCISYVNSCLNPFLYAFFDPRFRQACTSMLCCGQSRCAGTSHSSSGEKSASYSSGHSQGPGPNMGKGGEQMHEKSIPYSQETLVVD", "assay": "radioligand competition vs [Glp65,Nle75,Tyr77][125I]apelin-13 on CHO-K1 cells expressing human apelin receptor (Cerep); Cheng-Prusoff", "procedure": "Binding assays were performed by Cerep (Celle L'Evescault, France) on Chinese Hamster Ovary (CHO-K1) cells expressing the human apelin receptor. […] The results were expressed as a percent of control specific binding ((measured specific binding/control specific binding)×100) and as a percent inhibition of control specific binding (100−((measured specific binding/control specific binding)×100)) obtained in the presence of the test compounds. […] Results showing an inhibition between 20% and 50% were indicative of weak to moderate effects.", "values": [
      {"binder": "B1", "Ki": "19 nM"},
      {"binder": "B2", "Ki": "34 nM"},
      {"binder": "B3", "Ki": "82 nM"},
      {"binder": "ARPR[Nle]CKH[Abu]R[Aib]R[Nle][Phe(3,4,5-F3)]", "note": "[MM312]", "Ki": "190 nM and 160 nM"},
      {"binder": "CRPR[Nle]CKH[Abu]R[Aib]R[Nle][Phe(3,4,5-F3)] (cysteine pairing not given here)", "note": "[MM299]", "Ki": "6.1 nM"},
      {"binder": "Myristoyl-ARPR[Nle][Abu]KH[Abu]R[Aib]R[Nle][Phe(3,4,5-F3)]", "note": "[MM315]", "Ki": "3 nM and 2.7 nM"},
      {"binder": "CRPRLCKHCRPRLC (Linear peptide)", "note": "[MM108]", "Ki": "140 nM"},
      {"binder": "ARPR[Nle][Abu]KH[Abu]R[Aib]R[Nle][Phe(3,4,5-F3)]", "note": "[MM314]", "Ki": "10 nM and 8.9 nM"},
      {"binder": "CRPR[Nle][Abu]KHCR[Aib]R[Nle][Phe(3,4,5-F3)] (cysteine pairing not given here)", "note": "[MM298]", "Ki": "16 nM"},
      {"binder": "[pGlu]RPR[Nle]CKHCR[Aib]R[Nle][Phe(3,4,5-F3)] (cysteine pairing not given here)", "note": "[MM297]", "Ki": "55 nM"},
      {"binder": "B4", "Ki": "13 nM"},
      {"binder": "CRPRLCHKCRPRLC", "note": "[MM107]", "Ki": "180 nM"},
      {"binder": "B5", "Ki": "17 nM"},
      {"binder": "Myristoyl-ARPR[Nle][Abu]HK[Abu]R[Aib]R[Nle][Phe(3,4,5-F3)]", "note": "[MM316]", "Ki": "3 nM and 2.8 nM"},
      {"binder": "Ac-ARPR[Nle]CKH[Abu]R[Aib]R[Nle][Phe(3,4,5-F3)]", "note": "[MM313]", "Ki": "53 nM and 47 nM"}
    ]},
    {"molecular_target": "T1, human apelin receptor", "assay": "binding to human left ventricle", "units": {"Kd": "nM"}, "values": [
      {"binder": "B3", "Kd": 358}
    ]},
    {"molecular_target": "T1, human apelin receptor", "assay": "radioligand competition vs [Glp65,Nle75,Tyr77][125I]apelin-13 on human left ventricle homogenate", "procedure": "Equilibrium was broken by centrifugation (20,000 g for 10 min, 4° C.). Pellets were washed with Tris-HCl buffer (50 mmol/L, pH 7.4, 4° C.), re-centrifuged and bound radioactivity in the final pellets counted. Data from triplicate experiments were analysed using the iterative non-linear curve fitting programs EBDA and LIGAND (KELL package, Biosoft, UK) or GraphPad Prism 6 to derive values of affinity (expressed as either the equilibrium dissociation constant KD or the negative log₁₀ of the dissociation constant, pKᵢ±sem) and receptor density (BMAX±sem in fmoles bound per mg protein).", "values": [
      {"binder": "B1", "HLV pKi": 6.12}
    ]},
    {"molecular_target": "T1, human apelin receptor", "assay": "cell-based or functional assay", "values": [
      {"binder": "ARPR[Nle]CKH[Abu]R[Aib]R[Nle][Phe(3,4,5-F3)]", "note": "[MM312]", "DRx cAMP pA2": "6.6 and 6.84"},
      {"binder": "CRPR[Nle]CKH[Abu]R[Aib]R[Nle][Phe(3,4,5-F3)] (cysteine pairing not given here)", "note": "[MM299]", "DRx cAMP pA2": "7.32 and 6.95", "DRx β-Arrestin pA2": "8.1 and 8.53"},
      {"binder": "Myristoyl-ARPR[Nle][Abu]KH[Abu]R[Aib]R[Nle][Phe(3,4,5-F3)]", "note": "[MM315]", "DRx cAMP pA2": "8.52 and 8.11"},
      {"binder": "ARPR[Nle][Abu]KH[Abu]R[Aib]R[Nle][Phe(3,4,5-F3)]", "note": "[MM314]", "DRx cAMP pA2": "6.43 and 6.71"},
      {"binder": "CRPR[Nle][Abu]KHCR[Aib]R[Nle][Phe(3,4,5-F3)] (cysteine pairing not given here)", "note": "[MM298]", "DRx cAMP pA2": "7.59 and 7.12", "DRx β-Arrestin pA2": 7.76},
      {"binder": "[pGlu]RPR[Nle]CKHCR[Aib]R[Nle][Phe(3,4,5-F3)] (cysteine pairing not given here)", "note": "[MM297]", "DRx cAMP pA2": "6.08 and 6.14", "DRx β-Arrestin pA2": 7.38},
      {"binder": "Myristoyl-ARPR[Nle][Abu]HK[Abu]R[Aib]R[Nle][Phe(3,4,5-F3)]", "note": "[MM316]", "DRx cAMP pA2": "7.41 and 7.88"},
      {"binder": "Ac-ARPR[Nle]CKH[Abu]R[Aib]R[Nle][Phe(3,4,5-F3)]", "note": "[MM313]", "DRx cAMP pA2": "6.66 and 6.92"}
    ]},
    {"molecular_target": "T1, human apelin receptor", "assay": "cell-based or functional assay", "remark": "another data set of the same source", "values": [
      {"binder": "B1", "DRx β-Arrestin pA2": 7.68},
      {"binder": "B2", "DRx β-Arrestin pA2": 7.53},
      {"binder": "B3", "DRx cAMP pD2": 5.86},
      {"binder": "CRPRLCKHCRPRLC (Linear peptide)", "note": "[MM108]", "DRx β-Arrestin pA2": 7.41},
      {"binder": "CRPRLCHKCRPRLC", "note": "[MM107]", "DRx β-Arrestin pA2": 7.24}
    ]},
    {"molecular_target": "T1, human apelin receptor", "assay": "cell-based or functional assay", "remark": "another data set of the same source", "units": {"DRx cAMP assay EC50 (weak agonist activity)": "nM"}, "values": [
      {"binder": "B3", "DRx cAMP assay EC50 (weak agonist activity)": 1400}
    ]}
  ]
}
